Each block holds one compound with its values, some of them ahead of it.
What was measured:
[1] = tested on: mucin-secreting human tumor cell line T-47D; assay: In vitro tumor cell invasion assay through matrix (Boyden chamber) with stromal cells; type: cell-based; conditions: anti-sTn IgG1 mAb
From the text: To illustrate this embodiment, granulocytes (polymorphonuclear cells) were harvested by positive selection from peripheral blood, and macrophages were harvested by peritoneal wash, from C3H-SCID beige mice in order to avoid contaminating mouse NK cells, natural Abs, or any immune recognition by mouse T or B lymphocytes. In this in vitro tumor cell invasion assay, used were mucin-secreting human tumor cell line T-47D, a Boyden chamber, and a commercially available basement membrane matrix preparation (“matrix”) which solidifies into a semisolid matrix. In this assay, tested was the ability of tumor cells (2×10^4 cells) to migrate through the matrix (layered into a 6.5 mm well insert containing a polycarbonate membrane having a 3.0 μm pore size) in the following conditions: matrix alone; matrix containing stromal cells (2×10^5 cells, granulocytes and macrophages combined); matrix in the presence of anti-shed tumor antigen antibody (anti-sTn mAb; IgG1; 0.06 μg); matrix containing stromal cells in the presence of anti-sTn mAb (0.06 μg); and matrix containing stromal cells in the presence of Fab fragments (0.06 μg) of the anti-sTn mAb. […] Invasion was measured by counting the number of tumor cells per well which migrated to the bottom of the chamber after 48 to 72 hours. […]

[2] = target: FcγRI on type 1 or type 2 endothelial cells; assay: cell-based or functional assay
[3] = target: murine FcγRI on murine cells (Met 129, B16F10, granulocytes, peritoneal macrophages, MH-S macrophages) (mouse) (UniProt P26151); assay: cell-based or functional assay
Chain of murine FcγRI on murine cells (Met 129, B16F10, granulocytes, peritoneal macrophages, MH-S macrophages) (mouse) (P26151 25-404): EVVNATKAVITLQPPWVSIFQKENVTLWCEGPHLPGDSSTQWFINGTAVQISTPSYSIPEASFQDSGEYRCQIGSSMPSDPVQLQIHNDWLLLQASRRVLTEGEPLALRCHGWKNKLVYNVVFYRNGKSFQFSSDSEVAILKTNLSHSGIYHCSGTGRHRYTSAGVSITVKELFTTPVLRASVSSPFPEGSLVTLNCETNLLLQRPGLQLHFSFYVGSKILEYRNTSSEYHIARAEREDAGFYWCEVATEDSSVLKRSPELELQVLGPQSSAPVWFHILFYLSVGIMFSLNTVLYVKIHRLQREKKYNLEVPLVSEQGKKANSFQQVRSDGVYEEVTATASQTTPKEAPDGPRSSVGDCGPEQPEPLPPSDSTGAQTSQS

Compound: [N-]=[N+]=[N-] [azide, sodium azide]
reduction in tumor cell migration compared to assay in absence of the substance ([1]; 0.001% per well): ~5 fold

VEGF production by type 1 endothelial cells (ELISA, 2 h) [2]: > 5 pg/mL
IFN-γ secreted, macrophages + IC (ELISA) [3]: 5.3 pg/mL
IFN-γ secreted, macrophages + tumor cells + IC (ELISA) [3]: 4 pg/mL
IFN-γ secreted, macrophages + tumor cells + neutrophils + IC (ELISA) [3]: 4.1 pg/mL
IL-1β secreted, macrophages + IC (ELISA) [3]: 2.5 pg/mL
IL-1β secreted, macrophages + tumor cells + neutrophils + IC (ELISA) [3]: 22.8 pg/mL
IL-4 secreted, macrophages + IC (ELISA) [3]: 1.5 pg/mL
IL-4 secreted, macrophages + tumor cells + IC (ELISA) [3]: 1.3 pg/mL
IL-4 secreted, macrophages + tumor cells + neutrophils + IC (ELISA) [3]: 0.6 pg/mL
IL-6 secreted, macrophages + IC (ELISA) [3]: 104 pg/mL
IL-6 secreted, macrophages + tumor cells + IC (ELISA) [3]: 400 pg/mL
Compound: immune complexes comprising bovine submaxillary mucin and anti-sTn mAb (clone B72.3, IgG1)

Compound: methoxysuccinyl-alanyl-alanyl-prolyl-valine-chloromethylketone [MAAPVC]
reduction in tumor cell migration compared to assay in absence of the substance ([1]; 0.1 μg/well): ~5 fold

Source: US20030138859A1, “Assay kits and methods for immune complex-mediate activation involving shed antigens” (BioCrystal, Ltd., priority 1999, published 2003)
